Data from patent US20220396617A1 (BEIJING MABWORKS BIOTECH, published 2022).
Numbering of substitutions follows the chain as printed.

T1: human TIGIT expressed on HEK293A cells (human, UniProt Q495A1 22-244)
T1 sequence: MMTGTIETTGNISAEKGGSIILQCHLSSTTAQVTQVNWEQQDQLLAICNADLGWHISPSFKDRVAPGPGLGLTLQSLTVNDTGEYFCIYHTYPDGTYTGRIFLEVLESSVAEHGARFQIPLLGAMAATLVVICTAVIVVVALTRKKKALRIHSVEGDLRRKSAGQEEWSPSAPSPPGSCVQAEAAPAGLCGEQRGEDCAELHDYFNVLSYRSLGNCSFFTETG

T2: TIGIT (ECD)-hFc (human, UniProt Q495A1 22-141)
T2 construct: bought protein; also called recombinant human TIGIT (ECD)-hFc; Cat #: 10917-H02H, Sino Biological; not shown: human Fc (hFc) of the bought protein
T2 sequence: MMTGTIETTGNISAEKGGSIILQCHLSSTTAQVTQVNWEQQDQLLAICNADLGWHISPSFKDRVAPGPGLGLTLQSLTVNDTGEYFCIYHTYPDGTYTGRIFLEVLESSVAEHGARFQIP

T3: human TIGIT (ECD)-his (human, UniProt Q495A1 22-141)
T3 construct: bought protein; also called hTIGIT(ECD)-his; Cat #: 10917-H08H, Sino Biological; not shown: his tag of the bought protein
T3 sequence: T2 sequence

B1: 70E11-VH3VL3 (antibody, human IgG1, kappa, V domains shown)
VH: QVQLVQSGAEVKKPGASVKVSCKASGYTFTSYNVHWVRQAPGQGLEWIGTIYPGNLATSYNQKFKGRVTLTADKSTSTVYMELSSLRSEDTAVYYCARSGTMDYWGQGTTVTVSS
VL: EIVLTQSPGTLSLSPGERATLSCRASSSISSTYLHWYQQKPGASPKLLIYNTQNLASGIPDRFSGSGSGTSYTLTISRLEPEDFAVYYCQQFGGYPLITFGAGTKLELKR
notes: humanized, human IgG1/kappa
B2: 70E11-VH5VL3 (antibody, human IgG1, kappa, V domains shown)
VH: B1 VH with R38K, A40T, R67K, V68A
VL: B1 VL
notes: humanized, human IgG1/kappa; also called 70E11H5L3
B3: 70E11-VH2VL4 (antibody, human IgG1, kappa, V domains shown)
VH: B1 VH with I48M, K74T
VL: B1 VL with L21M, S22T, I59V, D61A
notes: humanized, human IgG1/kappa; also called 70E11H2L4
B4: Tiragolumab (antibody, V domains shown)
VH: EVQLQQSGPGLVKPSQTLSLTCAISGDSVSSNSAAWNWIRQSPSRGLEWLGKTYYRFKWYSDYAVSVKGRITINPDTSKNQFSLQLNSVTPEDTAVFYCTRESTTYDLLAGPFDYWGQGTLVTVSS
VL: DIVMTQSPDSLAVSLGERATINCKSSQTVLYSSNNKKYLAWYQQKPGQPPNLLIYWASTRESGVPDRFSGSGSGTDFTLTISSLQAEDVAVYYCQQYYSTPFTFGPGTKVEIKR
B5: 149G11-VH3VL2 (antibody, human IgG1, kappa, V domains shown)
VH: QVQLVQSGAEVKKPGASVKVSCKASGYTFTNYWIHWVKQAPGQGLEWIGDIYPGGRYSNYNEKFRGRVTLTADTSTSTVYMELSSLTSEDTAVYYCARYYESAMDFWGQGTTVTVSS
VL: DIVMTQSPDSLAVSLGERATINCKSSQNLLYNSNQKSYLAWFQQKPGQPPKLLIYWASTRESGVPDRFSGSGSGTDFTLTISSLQAEDLAVYYCQQYYNYPFTFGAGTKLELKR
notes: humanized, human IgG1/kappa
B6: 149G11-VH3VL3 (antibody, human IgG1, kappa, V domains shown)
VH: B5 VH
VL: B5 VL with I21V, P49S
notes: humanized, human IgG1/kappa
B7: 149G11-VH4VL2 (antibody, human IgG1, kappa, V domains shown)
VH: B5 VH with A40R, Q43H
VL: B5 VL
notes: humanized, human IgG1/kappa
B8: 149G11-VH2VL3 (antibody, human IgG1, kappa, V domains shown)
VH: B5 VH with K38R
VL: B5 VL with I21V, P49S
notes: humanized, human IgG1/kappa; also called 149G11H2L3
B9: 149G11-VH4VL3 (antibody, human IgG1, kappa, V domains shown)
VH: B5 VH with A40R, Q43H
VL: B5 VL with I21V, P49S
notes: humanized, human IgG1/kappa
B10: 149G11-VH1VL1 (antibody, human IgG1, kappa, V domains shown)
VH: B5 VH with K38R, I48M, L70M, A72R, T87R
VL: B5 VL with F42Y, L89V
notes: humanized, human IgG1/kappa
B11: mouse 70E11 (antibody, V domains shown)
VH: QVQLQQPGTDLVKPGASVRMSCKASGYTFTSYNVHWVKQTPGQGLEWIGTIYPGNLATSYNQKFKGKATLTADKSSTTAYMQLSSLTSEDSAVYYCARSGTMDYWGQGTTLTVSS
VL: ENVVTQSPAIMSASPGEKVTMTCRASSSISSTYLHWYQQKSGASPKLWIYNTQNLASGVPARISGSGSGTSYSLTISSVEAEDAATYYCQQFGGYPLITFGAGTKLELK
notes: also called antibody from clone 70E11
B12: mouse 149G11 (antibody, V domains shown)
VH: QVQLQQSGTELVRPGTSVKMSCRTAGYTFTNYWIHWVKQRPGHGLEWIGDIYPGGRYSNYNEKFRGKATLTADTSSSTAYMELSSLTSEDSAIYYCARYYESAMDFWGQGTSVTVSS
VL: DIVMSQSPSSLAVSVGEKVTVNCKSSQNLLYNSNQKSYLAWFQQKPGQSPKLLIYWASTRESGVPDRFTGSGSGTDFTLTISSVKAEDLAVYYCQQYYNYPFTFGSGTKLEIK
notes: also called antibody from clone 149G11
B13: chimeric 149G11 (antibody, human IgG1, kappa, V domains shown)
VH: B12 VH
VL: DIVMSQSPSSLAVSVGEKVTVNCKSSQNLLYNSNQKSYLAWFQQKPGQSPKLLIYWASTRESGVPDRFTGSGSGTDFTLTISSVKAEDLAVYYCQQYYNYPFTFGSGTKLEIKR
notes: mouse variable regions with human IgG1/kappa constant regions; also called chimeric antibody 149G11
B14: chimeric 70E11 (antibody, human IgG1, kappa, V domains shown)
VH: B11 VH
VL: ENVVTQSPAIMSASPGEKVTMTCRASSSISSTYLHWYQQKSGASPKLWIYNTQNLASGVPARISGSGSGTSYSLTISSVEAEDAATYYCQQFGGYPLITFGAGTKLELKR
notes: mouse variable regions with human IgG1/kappa constant regions; also called chimeric antibody 70E11
B15: 70E11-VH3VL4 (antibody, human IgG1, kappa, V domains shown)
VH: B1 VH
VL: B1 VL with L21M, S22T, I59V, D61A
notes: humanized, human IgG1/kappa

What follows are binders tested against T1, human TIGIT expressed on HEK293A cells (assay: cell-based or functional assay).

Binder	NK92-mediated ADCC against HEK293A/human TIGIT cells, EC50
B1	0.0191 nM
B2	0.00714 nM
B3	0.0172 nM
B4	0.0465 nM
B5	0.013 nM
B6	0.014 nM
B7	0.0184 nM
B8	0.00795 nM
B9	0.0177 nM

The binders below were run against T2, TIGIT (ECD)-hFc (assay: FACS blocking assay (protocol of Example 7): serially diluted antibody pre-incubated with TIGIT (ECD)-hFc, then binding of TIGIT (ECD)-hFc to A549/human PVR cells measured; blocked ligand: human PVR [B]).

Binder	IC50 (read off the curve)
B5	~2 µg/mL
B6	~2 µg/mL
B7	~2 µg/mL
B8	~2 µg/mL
B10	~2 µg/mL
B9	~2 µg/mL

The binders below were run against T4, monkey TIGIT expressed on HEK293A cells (monkey) (assay: FACS on HEK293A/monkey TIGIT cells).
T4 construct: also called HEK293A/monkey TIGIT cells
Procedure: (§1) After incubated at 4° C. for 1 h, plates were washed 3 times with PBST. Then, APC coupled Goat Anti-Mouse IgG (Cat #: 405308, BioLegend, US) diluted 500x was added to the plates. After incubation at 4° C. for 1 h, the plates were washed with PBS for 3 times and then cell fluorescence was monitored using a FACS machine (BD).

T4 sequence (chain, as listed by the source limits assumed): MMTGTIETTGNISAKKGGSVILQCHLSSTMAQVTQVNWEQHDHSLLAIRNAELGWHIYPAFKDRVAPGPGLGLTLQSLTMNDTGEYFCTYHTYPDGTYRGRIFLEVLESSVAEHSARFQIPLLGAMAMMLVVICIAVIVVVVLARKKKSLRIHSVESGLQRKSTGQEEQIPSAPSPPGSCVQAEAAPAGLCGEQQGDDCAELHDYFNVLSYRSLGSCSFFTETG

Binder	EC50
B11	0.39 nM
B12	1.2 nM
B4	0.9 nM

What follows are binders tested against T1, human TIGIT expressed on HEK293A cells (assay: FACS, HEK293A/human TIGIT cells, serially diluted antibody (protocol of Example 5) [A]).

Binder	EC50 (read off the curve)
B13	~0.2 µg/mL
B5	~0.2 µg/mL
B6	~0.2 µg/mL
B7	~0.2 µg/mL
B8	~0.2 µg/mL
B10	~0.2 µg/mL
B9	~0.2 µg/mL

Target: T1, human TIGIT expressed on HEK293A cells
Experiment: as above
Remark: another data set of the same source
Procedure: as §1

Binder	EC50 (read off the curve)
B14	~0.2 µg/mL
B13	~0.2 µg/mL
B4	~0.2 µg/mL

Each binder was assayed against T2, TIGIT (ECD)-hFc (assay: FACS blocking assay (protocol of Example 7): serially diluted antibody pre-incubated with TIGIT (ECD)-hFc, then binding of TIGIT (ECD)-hFc to A549/human PVR cells measured; blocked ligand: human PVR [A]).

Binder	IC50 (read off the curve)
B1	~4 µg/mL
B2	~4 µg/mL
B3	~4 µg/mL
B15	~4 µg/mL

These binders were tested against T5, monkey TIGIT (ECD)-hFc (monkey (cynomolgus)) (assay: SPR (BIAcore 8K), monkey TIGIT (ECD)-hFc on CM5 chip, antibody injected).
T5 construct: bought protein; also called cynoTIGIT(ECD)-hFc; cynomolgus TIGIT (ECD)-hFc; not shown: human Fc (hFc) of the bought protein

Binder	Kd
B4	0.0622 nM

Each binder was assayed against T4, monkey TIGIT expressed on HEK293A cells (assay: FACS, HEK293A/monkey TIGIT cells, serially diluted antibody (protocol of Example 5) [B]).
Procedure: as §1

Binder	EC50 (read off the curve)
B14	~0.2 µg/mL
B13	~0.5 µg/mL
B4	~0.2 µg/mL

Each binder was assayed against T3, human TIGIT (ECD)-his (assay: ELISA, coated human TIGIT (ECD)-his (table head says FACS)).
Procedure: Plates were washed for 3 times with PBST (PBS+0.05% Tween20), added with Goat-anti-mouse IgG-HRP (Cat #: A9309-1 ml, Sigma, US) diluted 5000×, and incubated for 1 h at room temperature. Plates were incubated with freshly prepared Ultra-TMB (Cat #: 555214, BD, US) for 5 minutes at room temperature for color development.

Binder	EC50
B11	0.82 nM
B12	0.86 nM

Each binder was assayed against T1, human TIGIT expressed on HEK293A cells (assay: FACS on HEK293A/human TIGIT cells).
Procedure: as §1

Binder	EC50
B11	0.56 nM
B12	0.1 nM
B4	0.44 nM

The binders below were run against T3, human TIGIT (ECD)-his (assay: SPR (BIAcore 8K), human TIGIT (ECD)-his on CM5 chip, antibody injected).
Procedure: They were also tested in SPR assays for their binding affinities to human and monkey TIGITs using the BIAcore™ 8K instrument (GE Life Sciences, US). […] The binding affinities were calculated with the RUs of blank controls subtracted. The association rate (kₐ) and dissociation rate (kd) were calculated using the one-to-one Langmuir binding model (BIA Evaluation Software, GE Life Sciences, US). The equilibrium dissociation constant KD was calculated as the kd/kₐ ratio.

Binder	Kd
B1	0.124 nM
B2	0.25 nM
B3	0.43 nM
B15	0.0502 nM
B7	0.00309 nM
B8	0.00329 nM
B9	0.0022 nM

What follows are binders tested against T2, TIGIT (ECD)-hFc (assay: FACS blocking assay (protocol of Example 7): serially diluted antibody pre-incubated with TIGIT (ECD)-hFc, then binding of TIGIT (ECD)-hFc to A549/human PVR cells measured; blocked ligand: human PVR).
Procedure: (§2) After incubated at 4° C. for 1 h, plates were washed 3 times with PBST and then added with PE coupled Goat Anti-human IgG (Cat #: PAI-86078, Thermofisher, US) diluted 500×. After incubation at 4° C. for 1 h, the plates were washed with PBST for 3 times and then cell fluorescence was monitored using a FACS machine (BD).

Binder	IC50 (read off the curve)
B14	~3 µg/mL
B13	~3 µg/mL

What follows are binders tested against T2, TIGIT (ECD)-hFc (assay: FACS blocking assay: antibody preincubated with TIGIT (ECD)-hFc, binding to A549/human PVR cells).
Procedure: as §2

Binder	EC50
B11	43 nM
B12	41 nM

What follows are binders tested against T5, monkey TIGIT (ECD)-hFc (assay: ELISA, coated monkey TIGIT (ECD)-hFc (table head says FACS)).

Binder	EC50
B4	0.14 nM
